The Human Domainome abundance scans (Beltran et al. 2025)
± gives the uncertainty stated by the source.

B1: Integrator complex subunit 12, residues 155 to 213; numbered along this chain, Q96CB8 (parent)
chain: AMEMGLACVVCRQMMVASGNQLVECQECHNLYHRDCHKPQVTDKEANDPRLVWYCARCT

Variants of: B1
Test: abundance fitness (aPCA) (normalised: wild type 0, dead -1); higher = more abundant; growth selection in yeast, the domain comes from the species named
Details: Homo sapiens

Variant	abundance fitness
AMEMGLACVVCRQMMVASGNQLVECQECHNLYRRDCHKPQVTDKEANDPRLVWYCARCT	-0.638 ± 0.043
AMEMGLACVVCRQMMVASGNQLVECQECHNLSHRDCHKPQVTDKEANDPRLVWYCARCT	-0.315 ± 0.033
AMEMGLACVVCRQMMVASGNQLVECQECHNLYHRDCHKPQVTDKEANDPRLVWYCARET	-0.906 ± 0.099
AMEMGLACVVCRQMMVASGNQLVECFECHNLYHRDCHKPQVTDKEANDPRLVWYCARCT	-0.062 ± 0.046
AMEMGLACVVCRQMMVASGNQLVECCECHNLYHRDCHKPQVTDKEANDPRLVWYCARCT	-0.038 ± 0.049
AMEMGLACVVCRQMMVASGNQLVECGECHNLYHRDCHKPQVTDKEANDPRLVWYCARCT	0.039 ± 0.053
AMEMGLACVVCRQMMVASGNQLVECQECHNLYHRDCHKPQVTDKEANPPRLVWYCARCT	-0.214 ± 0.065
AMEMGLACVVCRQMMVASGNQLVECQECHNLYHRDCMKPQVTDKEANDPRLVWYCARCT	0.031 ± 0.065
AMEMGLACVVCRQMMVASGNQLVECQECHNLYHRDCGKPQVTDKEANDPRLVWYCARCT	-0.148 ± 0.033
AMEMGLACVVCRQMMVASGNQLVECQECHNLYHRDCHKPQVTHKEANDPRLVWYCARCT	-0.155 ± 0.071
AMEMGLACVVCRQMMVASGNQLVECQECHNLYHRDCHKPQVTEKEANDPRLVWYCARCT	-0.037 ± 0.043
AMEMGLACVVCRQMMVASGNQLVECQECHNLYHRDCHVPQVTDKEANDPRLVWYCARCT	0.035 ± 0.046
AMEMGLACVVNRQMMVASGNQLVECQECHNLYHRDCHKPQVTDKEANDPRLVWYCARCT	-0.673 ± 0.04
AMEMGLACVVLRQMMVASGNQLVECQECHNLYHRDCHKPQVTDKEANDPRLVWYCARCT	-1.09 ± 0.057
AMRMGLACVVCRQMMVASGNQLVECQECHNLYHRDCHKPQVTDKEANDPRLVWYCARCT	-0.304 ± 0.037
AMNMGLACVVCRQMMVASGNQLVECQECHNLYHRDCHKPQVTDKEANDPRLVWYCARCT	-0.056 ± 0.039
AMEMGLACVVCRQMMVASGNQLVECQEDHNLYHRDCHKPQVTDKEANDPRLVWYCARCT	-0.576 ± 0.043
AMEMGLACVVCRQMMVASGNQLVECQECHNLYHRDCHKPQVQDKEANDPRLVWYCARCT	-0.064 ± 0.051
AMEMGLACVVCRQMMVASGNQLVECQECHNLYHRDCHKPQVIDKEANDPRLVWYCARCT	-0.281 ± 0.058
AMEMGLACVVCRQMMVASGNQLVECQECHNLYHRDCHKPQVTDEEANDPRLVWYCARCT	0.042 ± 0.052
AMEMGLACVVCRQMMVASGNQLVECQECHNLYHRDCHKPQVTDWEANDPRLVWYCARCT	-0.306 ± 0.067
AMEMGLACVVCRQMMVASGNQLVECQECHNLYHRDCHKPQVTDPEANDPRLVWYCARCT	-0.076 ± 0.054
AMEMGLACFVCRQMMVASGNQLVECQECHNLYHRDCHKPQVTDKEANDPRLVWYCARCT	-0.081 ± 0.035

Variant	abundance fitness
AMEMGLACVVCRQMMVAHGNQLVECQECHNLYHRDCHKPQVTDKEANDPRLVWYCARCT	0.014 ± 0.046
AMEMGLACVVCRQMMVASGNQLVKCQECHNLYHRDCHKPQVTDKEANDPRLVWYCARCT	-0.205 ± 0.083
AMEMGLACVVCRQMMVASGNQLVECQECHNLYHRDCHKPQVTDKEANDPRLVWYCARCE	0.098 ± 0.14
AMEMGLACVVCRQMMVASGNQLCECQECHNLYHRDCHKPQVTDKEANDPRLVWYCARCT	-0.103 ± 0.032
AMEMGLACVVCRQMMVASGNQLGECQECHNLYHRDCHKPQVTDKEANDPRLVWYCARCT	-0.528 ± 0.038
AMEMGLACVVCRQMMVASGNQLVECQECHNLYHRDCHKPQVTDKEANDPRLVWYNARCT	-0.615 ± 0.21
AMEMGLACVVCRQMMVASGNQLVECQECHNLYHRDCHKPQVTDKEANDPRLVWYHARCT	-0.938 ± 0.18
AMEMGLACVVCRQMMVASGNQLVECQECHNLYHRDCHKPQVTDKEANDPRLVWYWARCT	-1.11 ± 0.1
AMEMGLACVVCRQSMVASGNQLVECQECHNLYHRDCHKPQVTDKEANDPRLVWYCARCT	0.073 ± 0.032
AMEMGLACVVCRQNMVASGNQLVECQECHNLYHRDCHKPQVTDKEANDPRLVWYCARCT	0.031 ± 0.036
AMEMGLACVVCRQYMVASGNQLVECQECHNLYHRDCHKPQVTDKEANDPRLVWYCARCT	0.019 ± 0.036
AMEMGLACVVCRQMMVASDNQLVECQECHNLYHRDCHKPQVTDKEANDPRLVWYCARCT	0.031 ± 0.042
AMEMGLACVVCRQMMVASYNQLVECQECHNLYHRDCHKPQVTDKEANDPRLVWYCARCT	-0.167 ± 0.063
AMEMGLACVVCRQMMVASSNQLVECQECHNLYHRDCHKPQVTDKEANDPRLVWYCARCT	-0.044 ± 0.04
AMEMGLACVVCREMMVASGNQLVECQECHNLYHRDCHKPQVTDKEANDPRLVWYCARCT	-0.074 ± 0.087
AMEMGLACVVCRAMMVASGNQLVECQECHNLYHRDCHKPQVTDKEANDPRLVWYCARCT	-0.088 ± 0.047
AMEMGLACVVCRGMMVASGNQLVECQECHNLYHRDCHKPQVTDKEANDPRLVWYCARCT	-0.17 ± 0.044
AMEMGLACVVCRKMMVASGNQLVECQECHNLYHRDCHKPQVTDKEANDPRLVWYCARCT	0.011 ± 0.056
AMEMGYACVVCRQMMVASGNQLVECQECHNLYHRDCHKPQVTDKEANDPRLVWYCARCT	-0.063 ± 0.034
AMEMGLACVVCRQMMVASGNQLVECQECHNLYHWDCHKPQVTDKEANDPRLVWYCARCT	0.143 ± 0.1
AMEMGLACVVCRQMMVASGNQLVECQECHNLYHEDCHKPQVTDKEANDPRLVWYCARCT	-0.016 ± 0.12
AMEMGLACVVCRQMMVASGNQQVECQECHNLYHRDCHKPQVTDKEANDPRLVWYCARCT	-0.297 ± 0.12
